# Data from publication PMC10330843 (Cell, 2023).
# Target: recombinant full-length mouse cGAS (mouse, UniProt Q8C6L5 1-507)
# Test: co-IP
# Sequence of recombinant full-length mouse cGAS (Q8C6L5 whole entry): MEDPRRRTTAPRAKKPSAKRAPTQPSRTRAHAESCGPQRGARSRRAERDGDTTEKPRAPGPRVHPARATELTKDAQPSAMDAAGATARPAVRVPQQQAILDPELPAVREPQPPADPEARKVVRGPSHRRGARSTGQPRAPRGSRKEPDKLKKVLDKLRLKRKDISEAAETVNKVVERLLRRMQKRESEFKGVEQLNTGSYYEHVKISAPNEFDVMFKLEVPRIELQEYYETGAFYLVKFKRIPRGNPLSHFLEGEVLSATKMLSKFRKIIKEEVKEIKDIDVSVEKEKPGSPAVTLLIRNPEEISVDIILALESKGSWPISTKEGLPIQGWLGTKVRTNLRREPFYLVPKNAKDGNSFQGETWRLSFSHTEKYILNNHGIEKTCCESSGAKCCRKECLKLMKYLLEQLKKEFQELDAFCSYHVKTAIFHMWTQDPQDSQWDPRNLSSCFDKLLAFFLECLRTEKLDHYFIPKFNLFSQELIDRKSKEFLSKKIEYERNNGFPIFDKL
binder,measurement,value
"recombinant full-length mouse ZBP1 (natural protein, UniProt Q9QY24 1-411, looked up) MAEAPVDLSTGDNLEQKILQVLSDDGGPVKIGQLVKKCQVPKKTLNQVLYRLKKEDRVSSPEPATWSIGGAASGDGAPAIPENSSAQPSLDERILRFLEANGPHRALHIAKALGMTTAKEVNPLLYSMRNKHLLSYDGQTWKIYHSRQEGQDIAHSGVTQESPAIICQHNPVNMICQQGANSHISIANSNAIQIGHGNVIVREKACGEPGPRTSHPLPLAWDASAQDMPPVAHGAQYIYMDKSLLQQVQLGHHNEMSLVGDAGKHPSYSFSDSPPEVSTTTADPGASFNMQTFEPGPHPEGDTVQTVHIKSCFLEDATIGNGNKMTIHLRSKGEVMESGDSEEPKKEDTGTSSEATPPRSCQHTPSDSMLPTSELRAMALGDSSPQTTEPVLREHEVQDIESSQDTGLSKQ",binding result,binds
